# Data as given in PMC6978347, “Structural basis of p62/SQSTM1 helical filaments and their role in cellular cargo uptake” (Nature Communications, 2020).
# T1: MBP-tagged wild-type AtNBR1–PB1^1–94 (Arabidopsis thaliana, UniProt Q9SB64 1-94)
# T1 construct: NBR1 autophagy receptor, Arabidopsis thaliana (AtNBR1), residues 1-94 (PB1 domain); Held on amylose resin in the pull-down; also called MBP–AtNBR1–PB1; source: E. coli BL21 (DE3), expressed as described for AtNBR1–PB1, buffer-exchanged; not shown: MBP, N-terminal, kept
# T1 sequence (looked up): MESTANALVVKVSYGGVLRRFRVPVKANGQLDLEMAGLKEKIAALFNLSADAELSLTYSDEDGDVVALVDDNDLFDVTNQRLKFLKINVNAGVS
# T2: MEKK3^43–127 (MEKK3–PB1) (UniProt Q99759 43-127)
# T2 construct: MEKK3, residues 43-127 (PB1 domain); The His6 tag was kept for the gold-labelling and co-pelletation experiments; source: E. coli BL21 (DE3), expressed from pETM11, purified; not shown: His6, N-terminal, kept
# T2 sequence (looked up): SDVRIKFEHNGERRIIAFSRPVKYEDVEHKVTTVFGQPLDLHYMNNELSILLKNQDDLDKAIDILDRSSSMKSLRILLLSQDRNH
# Columns and labels:
# [1] = biological target: the molecule itself; experiment: co-sedimentation; sedimentation (pelletation) assay of single purified PB1 domains by ultracentrifugation; soluble and pellet fractions on SDS-PAGE
# [2] = biological target: T1, MBP-tagged wild-type AtNBR1–PB1^1–94; experiment: pull-down; MBP–AtNBR1–PB1 on amylose resin, 4:1 molar excess of AtNBR1–PB1 (mutant); wash 15 mM HEPES pH 7.5, 500 mM NaCl; eluted with 30 mM maltose; SDS-PAGE; conditions: both partners purified
# [3] = biological target: the molecule itself; experiment: co-sedimentation; co-pelleting assay: p62-PB1^1–122 with His6-tagged PB1 partner, 1 h on ice, 49,000 g, 4 °C, 30 min; pellet and supernatant on SDS-PAGE, Coomassie
# [4] = biological target: T2, MEKK3^43–127 (MEKK3–PB1); experiment: not stated; binding of NBR1–PB1 to MEKK3 'also measured'; method not given; conditions: both partners purified
Binder,binding result [1],also measured
"AtNBR1^1–94 (AtNBR1–PB1) (domain or fragment, Arabidopsis thaliana, UniProt Q9SB64 1-94, looked up, NBR1 autophagy receptor, Arabidopsis thaliana (AtNBR1), residues 1-94 (PB1 domain); Forms helical filaments; also called AtNBR1–PB1^1–94; NBR1^1–94 from Arabidopsis thaliana; source: E. coli BL21 (DE3), purified (Ni-NTA, 3C protease cleavage, Talon resin); not shown: His6, N-terminal, cleaved; MBP, N-terminal, cleaved) MESTANALVVKVSYGGVLRRFRVPVKANGQLDLEMAGLKEKIAALFNLSADAELSLTYSDEDGDVVALVDDNDLFDVTNQRLKFLKINVNAGVS",binds,binding result [2]: binds
"p62-PB1^1–122 (p62/SQSTM1 residues 1–122) (domain or fragment, human, UniProt Q13501 1-122, looked up, Forms helical filaments; also called p62-PB1 filaments; source: E. coli BL21 (DE3), purified (Ni-NTA, 3C protease cleavage, Talon resin); not shown: His6, N-terminal, cleaved; MBP, N-terminal, cleaved) MASLTVKAYLLGKEDAAREIRRFSFCCSPEPEAEAEAAAGPGPCERLLSRVAALFPALRPGGFQAHYRDEDGDLVAFSSDEELTMAMSYVKDDIFRIYIKEKKECRRDHRPPCAQEAPRNMV",–,binding result [3]: binds
"NBR1^1–85 (human NBR1–PB1) (domain or fragment, UniProt Q14596 1-85, looked up, NBR1, human, residues 1-85 (PB1 domain); The His6 tag was kept for the gold-labelling and co-pelletation experiments; also called HsNBR1^1–85; wild-type NBR1; source: E. coli BL21 (DE3), expressed from pETM11, purified; not shown: His6, N-terminal, kept) MEPQVTLNVTFKNEIQSFLVSDPENTTWADIEAMVKVSFDLNTIQIKYLDEENEEVSINSQGEYEEALKMAVKQGNQLQMQVHEG",–,Kd [4]: 13.3 µM
"p62^1–102 (domain or fragment, human, UniProt Q13501 1-102, looked up, p62/SQSTM1, human, residues 1-102 (PB1 domain); also called p62 PB1 domain 1–102; source: expressed and purified) MASLTVKAYLLGKEDAAREIRRFSFCCSPEPEAEAEAAAGPGPCERLLSRVAALFPALRPGGFQAHYRDEDGDLVAFSSDEELTMAMSYVKDDIFRIYIKEK",binds,–
"TFG1^1–95 (Trk-fused gene 1, TFG1–PB1) (domain or fragment, human, UniProt Q92734 1-95, looked up, TFG1 (Trk-fused gene 1), human, residues 1-95 (PB1 domain); source: E. coli BL21 (DE3), purified (Ni-NTA, 3C protease cleavage, Talon resin); not shown: His6, N-terminal, cleaved; MBP, N-terminal, cleaved) MNGQLDLSGKLIIKAQLGEDIRRIPIHNEDITYDELVLMMQRVFRGKLLSNDEVTIKYKDEDGDLITIFDSSDLSFAIQCSRILKLTLFVNGQPR",binds,–
